“Also recorded” adds a separate entry of the source. No end group written: not given here.

One data set concerns NF-κB. The data set is described as follows: Innate immune stimulation: NF-κB activation in THP1 NF-κB SEAP reporter monocytes. The note with it: polymer up to 20 mg/mL in culture medium. The data set is classed as cell-based, human.
In data set [1] the test system is human monocyte cells (THP1). As to conditions: 100 μM.
Procedure: The cellular viability of retinal pigmented epithelial like cells (ARPE19) and monocyte like cells (THP1) were assessed following exposure to thermo-responsive polymer at physiologically relevant concentrations.
THP1 cells were grown in vitro in cell growth medium and exposed to thermo-responsive polymer micelle that was resuspended in cell growth medium at the concentrations specified up to 20 mg/mL. […] Cell viability was assessed using Promega CellTiter 96® Non-Radioactive Cell Proliferation Assay (MTT).
Data set [2] in a line: DLS temperature sweep in PBS: hydrodynamic diameter (DH), transition temperature (Ttr), solubility/aggregation. The data set is classed as physicochemical. The note with it: for Ttr: drug conjugate polymers; for Ttr / DH^20° C. / DH^37° C.: PBS at 0.5 mg/mL; for DH^20° C.: hydrodynamic diameter at 20° C.; for DH^37° C.: hydrodynamic diameter at 37° C. The text has this: Temperature-responsive: Refers to changes in properties of a material with changes in temperature. A material may be described as temperature-responsive if the properties of the material change with respect to changes in temperature. Temperature-responsive polymers are polymers that experience a change in physical properties in response to temperature, such as a change in solubility with changes temperature, which may be described by a lower critical solution temperature (LCST) or upper critical solution temperature (UCST). Preferred embodiments of the temperature-responsive polymers described herein have reduced solubility at elevated temperatures, which may be described by an LCST or transition temperature (Ttr), if the LCST is unknown. Transitions temperatures described herein are experimentally determined by dynamic light scattering or by turbidity, wherein particle size (or light scattering intensity) or absorbance are plotted against temperature to produce a sigmoidal curve. The transition temperature as used herein is the temperature (value on the x-axis) at which the y-value is 50% the maximum value of the sigmoidal curve. Temperature-responsive monomers are monomers that form temperature-responsive polymers. […] Note: temperature-responsive monomers are defined herein as a type of hydrophobic monomer that is hydrophobic at certain temperatures.
Hydrodynamic behavior, thermo-responsiveness, and solubility under aqueous conditions. Prepared polymers and control materials were characterized for nanoparticle hydrodynamic diameter by dynamic light scattering (DLS), thermo-responsivity and overall solubility in PBS.

A short description of data set [3]: Concentration-dependent hydrodynamic behavior by DLS in PBS (0.8 to 200 mg/mL, 20-37° C.). The note with it: result in words; 5 mg/mL vs 200 mg/mL in PBS.
Procedure: Unless otherwise indicated, the hydrodynamic diameter (DH), also referred to as simply the diameter or as the number average diameter or number mean diameter, of the polymers and copolymers were measured using dynamic light scattering (DLS) at a scattering angle θ=90° using a Zetasizer Ultra (Malvern Panalytical, Malvern, England) equipped with a 633 nm laser, capillary cell (ZSU1002) and ZS Xplorer software. […] For measurements presented, number mean diameter was used for assessment. […] For transition temperature (Ttr) characterization, DLS measurements were performed for temperature sweeps over a maximum range of 4-50° C. at a concentration of 0.5 mg/mL, 5 mg/mL or 200 mg/mL in PBS (150 mM NaCl, pH 7.4). At each step, measurements were performed after reaching steady-state temperature conditions. Characterization of the polymer chain conformational changes was evaluated from the temperature dependence of the hydrodynamic diameter (DH); the Ttr value was determined from the intersection point of two lines formed by the linear regression of a lower horizontal asymptote and a vertical section of the S-shaped curve (sigmoidal curve) fit.
For data set [4] the following is noted: polymers of temperature-responsive monomers; cited from earlier work.
For data set [5] the following is noted: intravitreal injection; cited from earlier work.

`CCCCc1nc2c(N)nc3ccccc3c2n1CCCCN` [Compound 34, 1-(4-aminobutyl)-2-butyl-1H-imidazo[4,5-c]quinolin-4-amine]: the NF-κB activation entry in the data set with NF-κB was “strong NF-κB response”. Moreover, the “viability of THP1 cells” value in data set [1] is listed as 10-20%.
As to “CN-p[(NIPMAM)f1-co-(BnMAM)f2]-b-p(HPMA)a-PEG4-Ova [Compound 291]”, in data set [2], the Ttr was 28 °C, the “DH^20° C.” value stood at 7.4 nm and the “DH^37° C.” value came to 40.4 nm. Moreover, the “thermo-responsive and micelle-forming behavior” value in data set [2] (result in words, DLS in PBS) is given as “retains temperature responsiveness”. Also, in data set [3], the concentration-responsive micellization result is “retain concentration responsive micellization properties; also recorded: similarly demonstrated”.
Regarding “CN-p[(NIPMAM)f1-co-(BnMAM)f2]-b-p(HPMA)a-PEG4-Ova [Compound 292]”, in data set [2], the Ttr was determined as 32 °C, the “DH^20° C.” value turned out to be 6.1 nm and the “DH^37° C.” value amounted to 36.5 nm.
For “CN-p[(NIPMAM)f1-co-(BnMAM)f2]-b-p(HPMA)a-PEG4-Ova [Compound 293]” the same measures were 29 °C, 5.7 nm and 41.1 nm.
Take “CN-p[(NIPMAM)f1-co-(BnMAM)f2]-b-p(HPMA)a-pip-diABZI [Compound 290]”: in data set [2], the Ttr was found to be 31 °C, the “DH^20° C.” value turned out to be 15.3 nm and the “DH^37° C.” value was 25.3 nm.
Regarding “P(Val-Pro-Gly-Val-Gly)(SEQ ID NO: 3) (VPGVG; also: polymer of peptide-derived monomer)”, the “LCST or Ttr” value in data set [4] was 27 °C.
On to “Ranibizumab: Fab molecule used for intravitreal injections”, for which, in data set [5], the vitreal half-life is 76.8 h.
On to “Val-Pro-Gly-Val-Gly (SEQ ID NO: 3) derived polymethacrylate: polymethacrylate derived from the pentapeptide, Class IV of Table 1 (VPGVG; also: polymethacrylate backbone with pendant peptide)”, for which the “LCST or Ttr” value in data set [4] is 15-55 °C.

Values taken from patent US20230381112A1, “Compositions and Methods of Manufacturing Amphiphilic Block Copolymers that Form Nanoparticles in Situ” (Vaccuitech North America, Inc., priority 2020, published 2023).
